In paper doi:10.1101/2021.12.02.470928, “The PNUTS-PAD domain recruits MYC to the PNUTS:PP1 phosphatase complex via the oncogenic MYC-MB0 region” (bioRxiv, 2021):

Target: T1, PNUTS(1-148), PNUTS amino-terminal domain (PAD) (UniProt Q96QC0 1-148)
T1 construct: PNUTS (PP1 nuclear targeting subunit), residues 1-148, termed PAD; Vector pET28-MHL (RRID:Addgene_26096) with N-terminal His6 tag and TEV site; Used 13C,15N-labelled in some NMR experiments; also called apo PAD; source: E. coli BL21 (DE3), purified (Ni-NTA, gel filtration)
T1 sequence (looked up): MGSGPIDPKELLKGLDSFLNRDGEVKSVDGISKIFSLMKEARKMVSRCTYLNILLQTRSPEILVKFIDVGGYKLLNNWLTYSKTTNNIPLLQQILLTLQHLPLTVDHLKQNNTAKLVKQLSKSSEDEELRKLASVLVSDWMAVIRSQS
Assay: BLI; C-terminally biotinylated MYC constructs or N-terminally biotinylated peptides on SA biosensors, dipped into serial dilutions of PAD (WT or mutant); Octet RED384; room temperature; HBS-EP (10 mM HEPES pH 7.4, 150 mM NaCl, 3 mM EDTA, 0.005% P20) with 0.002 mg/ml BSA; Kd from steady-state response curves; apparent
Details: both partners purified

Kd: 3.5 µM
B1: biotinylated MYC(1-88) with C-terminal AVI tag (domain or fragment, UniProt P01106-2 16-103, looked up)
chain: MPLNVSFTNRNYDLDYDSVQPYFYCDEEENFYQQQQQSELQPPAPSEDIWKKFELLPTPPLSPSRRSGLCSPSYVAVTPFSLRGDNDG
modifications: biotin on the C-terminal AVI tag
notes: MYC, residues 1-88 (contains MB0 and MBI); Purified 'as described above'; also called wild-type MYC(1-88); recombinant biotinylated MYC N-terminal protein; source: E. coli BL21 (DE3)-BirA, biotinylated by co-expressed BirA, purified; not shown: AVI tag, C-terminal, kept
